Laboratory results: patent publication US9120865B2, “T cell epitopes of the Cyn d 1 allergen from bermuda grass pollen” (Circassia Limited, priority 2001, dated 2015)

Tests used:
[1] = tested on: oligoclonal T cell blasts from Bermuda grass pollen-specific T cell lines; test: Oligoclonal T cell proliferation assay (3HTdR incorporation); type: cell-based, human; conditions: for number of patients in whom the peptide elicited proliferation: 13 Cyn d 1-reactive patients, SI≧2.5 considered significant
From the text: Bermuda grass pollen-specific T cell lines were isolated with the use of our well-established methods for thegeneration of allergen-specific T cell populations (O'Hehir, R. E., Young, D. B., Kay, A. B., Lamb, J. R., Immunology, 62:635-640, 1987; O'Hehir, R. E., Askonas, B. A., Lamb, J. R., Vol 3, Heidelberg:Springer-Verlag, p 120-138, 1993). Briefly, PBMC were separated from heparinized venous blood by density gradient centrifugation over Ficoll Paque (Pharmacia, Sweden). PBMC were initially stimulated for 1 week in 24-well plates (Costar, USA; 2.5×10^6 PBMC/well) with a previously determined optimal concentration of Bermuda grass pollen extract (50 μg/ml) for 7 days in complete medium (RPMI-1640 medium, Gibco Life Technologies, supplemented with 2 mmol/L L-glutamine, 100 IU/ml penicillin/streptomycin, and 5% screened, heat inactivated human AB^+ serum, Sigma Chemical Company, USA) at 37° C., 5% CO2. A two week line was established by restimulating the T cell blasts with Bermuda grass pollen extract in the presence of irradiated (3000 rads) autologous PBMC every 7 days, with the addition of interleukin-2 (5% vol/vol; Lymphocult-TLF, Biotest Folex, Frankfurt, Germany) every 3-4 days. In all experiments, T cells were rested for 7 days after the last addition of antigen and antigen presenting cells (APC) before use in proliferation assays. We have previously shown that CD4+ T cells are preferentially expanded in these cultures.
Oligoclonal T cell blasts (5×10^4/well) from the Bermuda grass pollen-specific T cell lines were stimulated in triplicate with Bermuda grass pollen extract (25, 50, 100 μg/ml), purified Cyn d 1 (2.5, 5, 10 μg/ml) and the Cyn d 1 peptides (1, 10 μg/ml) in the presence of an equal number of irradiated autologous PBMC as APC for 72 hours in 96-well round bottom plates (ICN Biomedicals, USA). Cultures of T cells and APC in the absence of antigen or with added IL-2 were included as negative and positive controls respectively. After 72 hours, cultures were pulsed with 1 μCi/well of tritiated methyl thymidine (^3HTdR; Amersham, USA) and harvested 16 hours later onto glass fibre filters. Proliferation as correlated with ^3HTdR incorporation was measured by liquid scintillation spectroscopy. Results are expressed as change in mean counters per minute above background (Acpm) or as a stimulation index (SI, cpm of antigen stimulated T cells divided by cpm of unstimulated T cells) to allow easier comparison between subjects with different background incorporation. Stimulation index values ≧2.5 are considered significant. Production of IL-5 and IFN-γ by Bermuda grass pollen-specific oligoclonal T cells

IL-5 = test: Production of IL-5 by Bermuda grass pollen-specific oligoclonal T cells (sandwich ELISA of culture supernatants); type: cell-based, human; conditions: pre-SIT; supernatants at 48 hours
Protocol: (§1) Production of IL-5 and IFN-γ by cultured oligoclonal T cells was assessed by harvesting supernatants from proliferation assays at 48 hours after stimulation, with replacement by an equal volume of complete medium, and measurement of cytokine levels by sandwich ELISA. White 96-well maxisorp ELISA plates (Nalgene NUNC, Denmark) were coated with rat anti-mouse/human IL-5 (PharMingen, USA) or mouse anti-human IFN-γ (endogen, USA) at 2 μg/ml and incubated overnight at 4° C. The plates were washed with 0.5% Tween 20/PBS and blocked with 1% BSA/PBS for 1 hour at room temperature. The plates were washed again and the culture supernatants from pooled triplicate assays added in duplicate to the wells. A standard curve was established using known concentrations of human recombinant IL-5 (PharMingen, USA) and IFN-γ (Endogen, USA). The plates were incubated with either 1 μg/ml biotinylated rat anti-human IL-5 (PharMingen, USA) or 0.5 μg/ml biotinylated mouse anti-human IFN-γ (Endogen, USA) for 1 hour at room temperature. After washing the plates, streptavidin-biotinylated horseradish peroxidase (Amersham, USA), at a dilution of 1:2000, was added to each well and incubated for 45 minutes at room temperature. […] The plates were read on a LumiCount microplate glow luminometer (Packard Instrument Company, USA). […]

IFN-γ = test: Production of IFN-γ by Bermuda grass pollen-specific oligoclonal T cells (sandwich ELISA of culture supernatants); type: cell-based, human; conditions: pre-SIT; supernatants at 48 hours
Protocol: as §1

[2] = tested on: oligoclonal house dust mite-reactive CD4+ T cells; test: Mitogenicity check with irradiated PBMC; type: cell-based, human; conditions: data not shown
Protocol: (§2) Antigens • (i) Bermuda grass pollen. • Bermuda grass pollen was purchased from Greer Laboratories Inc. (Lenoir, N.C., USA) as dry, non-defatted pollen. One gram of pollen was extracted in 5 ml of 1 mM NH4HCO3 overnight at 4° C. on a rotating wheel. After centrifugation, the supernatant was dialyzed against PBS overnight. The extract was filtered through a 0.2 μm filter. The protein content of the extract was determined using the Bio-Rad Microassay (Bio-Rad, USA). • (ii) Cyn d 1. • Cyn d 1 was generated by the Bermuda grass pollen extract first undergoing an 80% ammonium sulphate precipitation. […] The protein content was determined using the Bio-Rad Microas say. • (iii) Peptides. • Synthetic peptides (20-mers overlapping by 11 or, for the two N-terminal peptides, 15 residues) spanning the entire length of the Cyn d 1 molecule were purchased from Mimotopes (Clayton, Australia; FIG. 2) (CD1 isoform, Smith et al., 1996, supra). • (iv) Mitogenicity and Toxicity. • Mitogenicity of Bermuda grass pollen, Cyn d 1 and Cyn d 1 peptides was excluded by culturing with oligoclonal house dust mite-reactive CD4^+ T cells in the presence of irradiated peripheral blood mononuclear cells (PBMC), and toxicity was excluded by co-culture of antigens with the HDM-reactive T cells in the presence of IL-2 (data not shown).

HDM-reactive T cells = test: Toxicity check by co-culture of antigens in the presence of IL-2; type: cell-based, human; conditions: data not shown
Protocol: as §2

IgE = conditions: sera from Bermuda grass pollen-allergic patients; cited from earlier work

LVQDDVIPANWKPDTVYTSK (human) [Cyn d 1(222-241), synthetic 20-mer peptide of Cyn d 1, residues 222-241]
number of patients in whom the peptide elicited proliferation ([1]; pre-immunotherapy): 6 patients

EGGAHLVQDDVIPANWKPDT (human) [Cyn d 1(217-236), synthetic 20-mer peptide of Cyn d 1, residues 217-236]
number of patients in whom the peptide elicited proliferation ([1]; pre-immunotherapy): 8 patients

SGKAFGAMAKKGQEDKLRKA (human) [Cyn d 1(109-128), synthetic 20-mer peptide of Cyn d 1, residues 109-128]
number of patients in whom the peptide elicited proliferation ([1]; pre-immunotherapy): 8 patients

MKSSWGAIWRIDPKKPLKGP (human) [Cyn d 1(190-209), synthetic 20-mer peptide of Cyn d 1, residues 190-209]
number of patients in whom the peptide elicited proliferation ([1]; pre-immunotherapy): 6 patients

PKDSDEFIPMKSSWGAIWRI (human) [Cyn d 1(181-200), synthetic 20-mer peptide of Cyn d 1, residues 181-200]
number of patients in whom the peptide elicited proliferation ([1]; pre-immunotherapy): 6 patients

B1: Cyn d 1: major allergen protein of Bermuda grass pollen, purified from the pollen extract by ammonium sulphate precipitation and G-75 Sephadex (protein)
chain: AIGDKPGPNITATYGNKWLEAKATFYGSNPRGAAPDDHGGACGYKDVDKPPFDGMTACGNEPIFKDGLGCGACYEIKCKEPVECSGEPVLVKITDKNYEHIAAYHFDLSGKAFGAMAKKGQEDKLRKAGELTLQFRRVKCKYPSGTKITFHIEKGSNDHYLALLVKYAAGDGNIVAVDIKPKDSDEFIPMKSSWGAIWRIDPKKPLKGPFSIRLTSEGGAHLVQDDVIPANWKPDTVYTSKLQFGA
modifications: human
notes: major allergen protein of Bermuda grass pollen, purified from the pollen extract by ammonium sulphate precipitation and G-75 Sephadex
change in proliferative responses / recognition ([1]; following SIT): marked decrease
patients with decreased proliferation ([1]; following one year of SIT): 11/13
patients whose Bermuda grass pollen-specific T cell lines showed proliferative T cell responses ([1]; pre-immunotherapy, 2-week T cell lines from 14 patients): 13/14
IL-5 secreted in response to stimulation (IL-5): High levels
IFN-γ secreted in response to stimulation (IFN-γ): High levels
Mitogenicity [2]: excluded
toxicity (HDM-reactive T cells): excluded
predominant humoral recognition (IgE): > 76%
